Results from patent publication US8399416B2, “Method of using heparin binding motif for treating asthma” (National Tsing Hua University, priority 2008, dated 2013).

Tests used:
[1] = test system: Beas-2B cells; test: Cell ELISA of MBP-ECP and MBP-ECP mt1 binding to cells; format: cell-based, human; details: MBP-ECP mt1 relative to MBP-ECP; 1 h at 4° C.
[2] = test system: Beas-2B cell line; test: MTT cytotoxicity assay of ECP; format: cell-based, human; details: 37° C. 48 h, read-out: IC50 for cytotoxic ECP
Description: FIG. 12. Cytotoxicity of wild-type and mutant ECP. Beas-2B cells were incubated with increasing concentrations of wild-type and mt1 ECP at 37° C. for 48 h, followed by the MTT assay. The error bars show standard deviation among triplicate experiments.
The inhibition of lymphocyte and mammalian cell growth by ECP has been reported (Fan, T. C., et al. (2007) Traffic 8, 1778-1795; Maeda, T., et al. (2002) European Journal of Biochemistry 269, 307-316). As a physiological test, the cytotoxicity of ECP mt1 was monitored by MTT assay. The effect of ECP on the cell growth was determined by a colorimetric assay using 3-(4,5-dimethylthiazol-2-yl)-2,5-diphenyltetrazolium bromide (MTT) (US Biological, MA, USA). Cells were plated in a 96-well plate (5000 cells/well) and incubated at 37° C. overnight. Each sample was incubated with the indicated concentration (1-100 μM) of ECP. Forty-eight hours after treatment with ECP, MTT was added, and cell growth was monitored at A570 to measure the mitochondrial-dependent formation of a colored product.

B1: ECP mt1: ECP mutant with R34A/W35A/R36A/K38A substitutions (protein, UniProt P12724 28-160, looked up, variant R34A W35A R36A K38A)
Eosinophil cationic protein: RPPQFTRAQWFAIQHISLNPPRCTIAMRAINNYAAACANQNTFLRTTFANVVNVCGNQSIRCPHNRTLNNCHRSRFRVPLLHCDLINPGAQNISNCTYADRPGRRFYVVACDNRDPRDSPRYPVVPVHLDTTI
In the case of B1, the cell-binding activity [1] is reported as 50% and the IC50 [2] is reported as 38.5 µM.
